Measurements as given in patent EP1073891B1, “METHOD OF PREDICTING RECEPTOR MODULATING ACTIVITY” (Duke University, priority 1998, dated 1999).
One block for each compound: values may come before it.

Key:
MCF-7 cell xenografts = test: Growth of MCF-7 cell xenografts in A-thymic nude mice; assay type: in vivo
ER = assay type: cell-based
[1] = In vivo tissue pharmacology of antiestrogen (uterus, bone, cardiovascular system); settings: assayed in vivo
ERα [2] = target: T1, ERα (Homo sapiens, UniProt P03372); assay type: binding; design: purchased PanVera Corporation, Madison, WI; settings: Table 14, ERα and ERβ; progesterone 1 µM
T1 sequence (P03372 1-595): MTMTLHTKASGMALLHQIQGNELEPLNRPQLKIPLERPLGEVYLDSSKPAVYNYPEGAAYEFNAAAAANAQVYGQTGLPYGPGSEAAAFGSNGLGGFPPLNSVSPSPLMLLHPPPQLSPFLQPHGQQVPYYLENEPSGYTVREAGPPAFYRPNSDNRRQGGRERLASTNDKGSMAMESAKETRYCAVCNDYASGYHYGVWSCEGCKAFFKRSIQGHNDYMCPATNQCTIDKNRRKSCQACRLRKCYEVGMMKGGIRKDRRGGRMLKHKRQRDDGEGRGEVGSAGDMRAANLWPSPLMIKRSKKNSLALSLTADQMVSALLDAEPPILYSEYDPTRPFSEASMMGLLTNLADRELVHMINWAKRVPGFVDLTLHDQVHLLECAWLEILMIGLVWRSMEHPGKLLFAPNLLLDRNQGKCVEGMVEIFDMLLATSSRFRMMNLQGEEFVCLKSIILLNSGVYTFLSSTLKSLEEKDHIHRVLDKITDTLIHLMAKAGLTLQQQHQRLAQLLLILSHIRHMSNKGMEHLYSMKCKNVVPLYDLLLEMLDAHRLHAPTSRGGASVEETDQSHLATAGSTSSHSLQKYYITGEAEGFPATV
Protocol: Oligonucleotides corresponding to the vitellogenin ERE, biotin-[…] (forward) and biotin-[…] (reverse), were synthesized by Genosys.
These assays were conducted by phage ELISA.
Res. Treat. […] Jordan, Pharmacological Rev. […] And Metab.
Bound phage were detected as described previously.

[3] = target: T2, estrogen receptor α (ERα) (Homo sapiens, UniProt P03372); test: LexA yeast two hybrid, β-galactosidase activity assay (Example 3); assay type: cell-based
T2 construct: The full length estrogen receptor was subcloned in frame into the EcoRI and XhoI sites of pJG4-5; expressed in transfected cells; host or cells: Saccharomyces cerevisiae EGY48
T2 sequence (P03372 1-595): T1 sequence (P03372 1-595)
From the text: The LexA system that we employ utilizes a bacterial DNA binding protein domain, LexA, and a bacterially derived transcriptional activation sequence, B42. Proteins or peptides of interest are fused in frame with these domains and expressed using episomal plasmids in a yeast cell. The interactions between these proteins/peptides of interest are registered by monitoring the level of the reporter gene product, β-galactosidase, by an enzymatic assay. The differences in the levels of β-galactosidase activities reflect the relative strengths of the protein interactions.
The yeast strains used in this study was EGY48 (MAT a trp1 his3 ura3 leu2::61exAops-LEU2) purchased from OriGeneTechnologies for yeast two hybrid analysis. This strain contains 6 LexA operators upstream of the LEU2 gene in the yeast genome and provides high sensitivity in detecting protein-protein interactions in the LexA two hybrid system. The plasmids used in this study were pEG202 (LexA-DNA binding domain), pJG4-5 (B42-activation domain), and the plasmid containing a β-galactosidase reporter, pJK103 (OriGene Technologies). The full length estrogen receptor was subcloned in frame into the EcoRI and XhoI sites of pJG4-5 to generate an ERα-B42 activation domain fusion. ERα was subcloned in the activation domain plasmid because ERα was able to autoactivate reporters when fused to the LexA DNA binding domain.
The peptide sequences used in this study were generated from synthetic oligos filled in by T7 Sequenase (Life Science) and subcloned into the EcoRI-XhoI sites of pEG202. The synthetic oligos were: [formula] [formula] [formula] [formula] The complementary synthetic oligo used to generate double stranded DNA was 3'XhoPrim, 5'-[…]. Each 5'-oligo was annealed to the 3'-oligo by heating to 90 °C for 15 minutes and cooled slowly to 35 °C. T7 sequenase was added and the fill-in reaction allowed to proceed at 30 °C for 30 minutes. The reaction was terminated by heat denaturing the enzyme at 65 °C for 1 hour, restriction digests were performed and the resulting DNA fragments subcloned into pEG202 to generate peptide-LexA DNA binding domain fusions.
The culture was diluted to ~2x10^6 cells/ml in the same media and allowed to grow at 30 °C until the cultures reached a density of ~1x10^7 cells/ml (∼4 hours). The yeast cells were pelleted by centurifugation, washed with extraction buffer (60 mM Na2HPO4, 40 mMNaH2PO4, 10 mM KCl, 1 mM MgSO4, 1mM PMSF, 7 mM 2-mercaptoethanol) and suspended in 200 µl of extraction buffer. 100 µl of acid-washed glass beads were added and cells were lysed by vigorous agitation for 10 minutes at 4 °C. Cellular debris was pelleted by centrifugation and the supernatant transferred to a clean tube. 10 µg of total cellular protein was diluted into complete Z buffer (60 mM Na2HPO4, 40 mMNaH2PO4 , 10 mM KCl, 1 mM MgSO4, 7 mM 2-mercaptoethanol) to a volume of 100 µl in a 96-well microplate. 80 µg of o-nitrophenyl-β-D-pyranoside (ONPG) in 20 µl was added to each well to initiate color development.
10µg of each protein extract was assayed for β-galactosidase activity using o-nitrophenyl-b-D-pyranoside as substrate. Activity units are defied as 1000* Abs405/minutes/mg/protein.
Values are in beta-galactosidase units (MOD/min/mg)

full length ER-α = target: T3, full length ER-α (Homo sapiens, UniProt P03372); test: Affinity selection and phage ELISA of X7-LXXLL-X7 library on estradiol treated ER (Example 101.1); assay type: binding
T3 construct: Baculovirus expressed full length ER-α; host or cells: baculovirus expression
T3 sequence (P03372 1-595): T1 sequence (P03372 1-595)
Protocol: M13 phage-based random peptide libraries were incubated with target proteins in the wells, ER binding phage were retained while the unbound phage were washed away. Bound phage were eluted by low pH buffer, amplified in DH5αF' cells and subjected to subsequent round of selection. The selection processes were repeated 2-3 times to enrich for EB bonding phage. Individual phage were plaque purified, amplified and their binding characteristics were examined by ELISA.

full length ER = target: T4, full length ER (Homo sapiens, UniProt P03372); test: Mapping of probe binding sites, phage ELISA on directly immobilized receptor
T4 construct: amino terminal domain (1-184) fused to GST, and the full length ER; purchased PanVera Corporation, Madison, WI
T4 sequence (P03372 1-595): T1 sequence (P03372 1-595)
Protocol: Assays were conducted using the format described in Example 2.3, except that the domains were directly immobilized on the plastic surface of the well. Assays were conducted as for phage ELISA (Ex. 2.3).

ERα [4] = target: T1, ERα; test: Phage ELISA on plastic-immobilized ER, with or without estradiol, agonists or SERMs (Examples 1.3a, 1.4); assay type: binding; design: purchased PanVera Corporation, Madison, WI
From the text: ER alpha (Panvera Corp.) was immobilized on Immulon 4 plastic plates (Dynatech) for the phage affinity selection as described in patent application Fowlkes, 09/050,359. Peptide sequences obtained for binding to the unliganded (unactivated) receptor are listed below (Table 1).
Phage expressing distinct peptide sequences were classified according to a number of different parameters.
The effect of agonists and SERMs on the binding of phage from each of the 5 classes described above was investigated.
The following fingerprints were identified (Table 6). The data are based on the relative change in binding (as determined by an increase or decrease in absorbance) compared to the unliganded receptor. The number of + or - signs indicates the degree and the direction of the change in signal; +/- indicates no significant change.

Compound: CC/C(=C(\c1ccccc1)c1ccc(/C=C/C(=O)O)cc1)c1ccccc1 [GW5638]
growth of MCF-7 cell xenografts (MCF-7 cell xenografts): effectively inhibited
AF-1 and AF-2 agonist activity (ER): devoid of AF-1 and AF-2 agonist activity
inhibition of tamoxifen partial agonist activity (ER; assayed in vitro): inhibits tamoxifen partial agonist activity under all conditions examined
activity in bone and the cardiovascular system [1]: functions as an estrogen
uterotrophic activity [1]: does not display uterotrophic activity

Compound: CC(=O)[C@H]1CC[C@H]2[C@@H]3CCC4=CC(=O)CC[C@]4(C)[C@H]3CC[C@]12C [progesterone]
binding pattern of the probes (fingerprint) compared with buffer (ERα [2]): indistinguishable from that produced by buffer

Compound: SSNHQSRLIELLSR [ER4]
binding to ligand occupied ER (full length ER-α; agonist, partial agonist or antagonist occupied ER): binds to agonist occupied ER but not partial agonist- or antagonist-occupied ER

Now from value to compound:

Peptide Interactions with ER Alpha, beta-galactosidase units, value ([3]; 4-hydroxy Tamoxifen): 20267 MOD/min/mg
Peptide Interactions with ER Alpha, beta-galactosidase units, value ([3]; Estradiol): 38883 MOD/min/mg
Peptide Interactions with ER Alpha, beta-galactosidase units, value ([3]; No Addition): 30983 MOD/min/mg
Peptide Interactions with ER Alpha, beta-galactosidase units, value ([3]; Tamoxifen Citrate): 11947 MOD/min/mg
affinity for ERα (full length ER-α; affinity-selected peptide): high affinity
Compound: GHEPLTLLERLLMDDKQAV [Peptide F6]

binding to the full length protein (full length ER): binds only to the full length protein
Compound: SSEYCFYWDSAHCSR [α I]

binding of ER in presence of estradiol (ERα [4]): weak binders
Compound: SSVTKKALTIAKDSR

binding of ER in presence of estradiol (ERα [4]): weak binders
Compound: SSYQWETHSDKWRSR
